Measured values reported in patent US20130289253A1.
Several values for one entry are separate records, joined by “and”; a condition that tells them apart may be missing. Equal entries are not always repeated. Where two headings read alike, the source gives them in different places.

Columns and labels:
[1] = biological target: HA peptide-stimulated PBMC (antigen-specific CD4+ T cells)
control (Fig. 48) [2] = biological target: control (Fig. 48)
[3] = biological target: HA peptide-stimulated PBMC (antigen-specific CD4+ T cells); remark: listed apart in the source
[4] = biological target: HA peptide-stimulated PBMC (antigen-specific CD4+ T cells); remark: listed apart in the source
control (Fig. 48) [5] = experiment: flow cytometry, 4 °C; control
control (Fig. 48) [6] = experiment: flow cytometry, RT, 7 µg/ml; control
[7] = biological target: HA peptide-stimulated PBMC (antigen-specific CD4+ T cells); experiment: flow cytometry, 4 °C; HA306-318 stim
control (Fig. 48) [8] = experiment: flow cytometry, RT, 3.5 µg/ml; control
control (Fig. 48) [9] = experiment: flow cytometry, RT, 1.75 µg/ml; control
[10] = biological target: HA peptide-stimulated PBMC (antigen-specific CD4+ T cells); experiment: flow cytometry, RT, 7 µg/ml; HA306-318 stim
[11] = biological target: HA peptide-stimulated PBMC (antigen-specific CD4+ T cells); experiment: flow cytometry, RT, 3.5 µg/ml; HA306-318 stim
[12] = biological target: HA peptide-stimulated PBMC (antigen-specific CD4+ T cells); experiment: flow cytometry, RT, 1.75 µg/ml; HA306-318 stim
[13] = biological target: HA peptide-stimulated PBMC (antigen-specific CD4+ T cells); experiment: flow cytometry, RT 1 h, 10 µg/ml; HA306-318 stim
[14] = biological target: HA peptide-stimulated PBMC (antigen-specific CD4+ T cells); experiment: flow cytometry, 37 °C 1 h, 10 µg/ml; HA306-318 stim
[15] = biological target: HA peptide-stimulated PBMC (antigen-specific CD4+ T cells); experiment: flow cytometry, staining at 4°C 1 h, 28 µg/ml; 0 min, no imidazole
[16] = biological target: HA peptide-stimulated PBMC (antigen-specific CD4+ T cells); experiment: flow cytometry, staining at 4°C 1 h, 28 µg/ml; 1 min, no imidazole
[17] = biological target: HA peptide-stimulated PBMC (antigen-specific CD4+ T cells); experiment: flow cytometry, staining at 4°C 1 h, 28 µg/ml; 3 min, no imidazole
[18] = biological target: HA peptide-stimulated PBMC (antigen-specific CD4+ T cells); experiment: flow cytometry, staining at 4°C 1 h, 28 µg/ml; 5 min, no imidazole
[19] = biological target: HA peptide-stimulated PBMC (antigen-specific CD4+ T cells); experiment: flow cytometry, staining at 4°C 1 h, 28 µg/ml; 10 min, no imidazole
control (Fig. 48) [20] = experiment: flow cytometry, RT; control; conventional BSP multimer, concentration not given

DR4 2×His DTB-HA306-318 complexes (DTB-streptactin purified monomers) (from UniProt P01903 26-216) (peptide-MHC)
% of cells in Q2 (multimer+ CD4+) [1]: 24.9% and 9.81%
% of cells in Q2 (multimer+ CD4+) (control (Fig. 48) [2]): 0.384% and 0.618%
% of cells in Q2 (multimer+ CD4+) [3]: 12.3%
% of cells in Q2 (multimer+ CD4+) [4]: 4.52%
% of cells in Q2 (multimer+ CD4+) (control (Fig. 48) [5]): 0.355% and 0.561%
% of cells in Q2 (multimer+ CD4+) (control (Fig. 48) [6]): 0.11%
% of cells in Q2 (multimer+ CD4+) [7]: 2.52% and 2.3%
% of cells in Q2 (multimer+ CD4+) (control (Fig. 48) [8]): 0.222%
% of cells in Q2 (multimer+ CD4+) (control (Fig. 48) [9]): 0.142%
% of cells in Q2 (multimer+ CD4+) [10]: 6.15%
% of cells in Q2 (multimer+ CD4+) [11]: 7.94%
% of cells in Q2 (multimer+ CD4+) [12]: 7.23%
% of cells in Q2 (multimer+ CD4+) [13]: 5.35% and 3.3%
% of cells in Q2 (multimer+ CD4+) [14]: 6.23%
% of cells in Q2 (multimer+ CD4+) [15]: 4.5%
% of cells in Q2 (multimer+ CD4+) [16]: 5.3%
% of cells in Q2 (multimer+ CD4+) [17]: 4.68%
% of cells in Q2 (multimer+ CD4+) [18]: 4.59%
% of cells in Q2 (multimer+ CD4+) [19]: 4.35%
% of cells in Q2 (multimer+ CD4+) (control (Fig. 48) [20]): 0.121%
